How the values were obtained:
[1] = molecular target: the molecule itself; assay: SAXS + WAXS; peptide samples at 5 and 10 mg/mL in quartz capillaries, beamline I22 at Diamond Light Source, water as background
[2] = molecular target: the molecule itself; assay: ITC; NaOH (0.0025, 0.0125, 0.025 M) titrated into peptide at 0.1, 0.5 and 1 mg/mL in water, 25 °C; the energy change on deprotonation is read as a sign of self-assembly, no binding constant is fitted

Row | Protein | binding result [1] | binding result [2]
1 | FEFEPKFKF (KPE with the polar residues shuffled: glutamic acids on one side of the proline, lysines on the other; source: synthetic peptide, bought: Biomatik LLC (HCl salt, >90% purity)) | binds | –
2 | FEFKPEFKF (FP with one more phenylalanine at the C-terminal end; also called KEP; source: synthetic peptide, bought: Biomatik LLC (HCl salt, >90% purity)) | – | binds
3 | FEFKFEFK (also called F8; source: synthetic peptide, bought: Biomatik LLC (HCl salt, >90% purity)) | – | binds

Reference: PMC11601148, “Effects of proline substitution/inclusion on the nanostructure of a self-assembling β-sheet-forming peptide†” (RSC Advances, 2024)
